Data as given in patent EP4596580A1 (Staidson (Beijing) Biopharmaceuticals Co., Ltd., dated 2025).
Positions count from the first letter of the chain named.

T1: His-human LIGHT (human)
T1 chain: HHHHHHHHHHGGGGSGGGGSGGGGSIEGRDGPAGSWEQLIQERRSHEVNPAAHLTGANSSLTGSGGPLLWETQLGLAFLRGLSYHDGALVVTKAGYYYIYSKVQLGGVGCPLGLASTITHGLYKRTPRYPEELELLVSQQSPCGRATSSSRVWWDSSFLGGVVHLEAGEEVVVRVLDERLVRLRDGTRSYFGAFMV

T2: His-cynomolgus monkey LIGHT (cynomolgus monkey)
T2 construct: also called His-cynoLIGHT
T2 chain: T1 chain with P32H, A33G, E47Q, V48N, S83D, V91A, T92N, S149N, A167V

T3: His-mouse LIGHT (mouse)
T3 construct: also called His-musLIGHT
T3 chain: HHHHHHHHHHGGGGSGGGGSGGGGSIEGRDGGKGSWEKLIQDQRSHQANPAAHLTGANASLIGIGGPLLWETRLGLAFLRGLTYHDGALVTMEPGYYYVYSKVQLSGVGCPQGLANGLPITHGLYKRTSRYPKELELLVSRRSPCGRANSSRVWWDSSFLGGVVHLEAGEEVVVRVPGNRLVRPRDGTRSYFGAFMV

B1: LT-m17 (antibody, human IgG4, V domains shown)
VH: QVQLQQSGPELVKPGASVKISCKASGYSFTGYFMNWVKQSHGKSLEWIGRIYPYSGDTFYNQKFNNKATLTVDKSSSTAHLELLSLTSEDSAVYYCGRSEHFGRNYGTGAVDYWGQGTSVTVSS
VL: DVVMTQTPLSLPVSLGDQASISCRSSQGLVHSNGNTYLHWYLQKPGQSPKLLIYKVSNRFSGVPDRFSGSGSGTDFTLKISRVEAEDLGIYFCSQSTHVPYTFGGGTKLEIK
B2: LT-m64 (antibody, human IgG4, V domains shown)
VH: EVKLEESGAELVKPGASVRLSCKTSGYTFTNYYVYWVKQRPGQGLEWIGEINPTNGDPNFNEKFKSKATLTVDKSSSTAYMHLSSLTSEDSAVYYCTRSNWDYGNAMDFWGQGTSVTVSS
VL: DIVMTQSPASLAVSLGQRATISCKASQSVDFDGDGYMNWYQQKPGQPPKLLIYKASHLDSGIPARFSASGSGTDFTLNIHPVEEEDAATYYCQQSIEDPFTFGSGTKLEIK
B3: LT-m58 (antibody, human IgG4, V domains shown)
VH: QVQLQQSGAEMASPGASVTLSCKASGYTFIDHIMNWVKKRPGQGLEWIGRIYPVSGETNYNQKFMGKATFSVDRSSSTVYMVLNSLTSEDPAVYYCGRGSYYWNAMDYWGQGTTLTVSS
VL: B2 VL with G35S, K54S, H57N, D59E, A68G, F100W, S104G
B4: LT-m85 (antibody, human IgG4, V domains shown)
VH: EVQLQQSGAELVKPGASVKMSCKASGYTFTSYNVHWVKQTPGQGLEWIGAVYPGNGDTSYNQKFKGKATLTADKSSNTAYMQLSSLTSEDSAVYYCARGSYYYTSSYFDHWGQGTTLTVSS
VL: B2 VL with M4L, G35S, K54T, H57N, D59E, S67T, A68G, I96Y
B5: LT-m55 (antibody, human IgG4, V domains shown)
VH: EVQLQQSGAELVKPGASVKLSCKASGYTFATYYMYWVKQRPGQGLEWIGEINPTNGGTIFNEKFKTKATLTVDKSSSTAYMQLSSLTSEDSAVYYCARGNWPYWSFDVWGAGTSVTVSS
VL: B2 VL with M4L, G35N, K54A, H57N, F100W, S104G
B6: LT-m18 (antibody, V domains shown)
VH: B1 VH with Q1E, Q3K, Q5L, Q6E
VL: B1 VL with V2I, M4L, T7S, G28S, I90V, Y101L, G105D, K108R
B7: hum_LT-m85-5 (antibody, human IgG4, V domains shown)
VH: QVQLVQSGAEVKKPGASVKVSCKASGYTFTSYNVHWVRQAPGQGLEWIGAVYPGNGDTSYNQKFKGRATLTADKSTSTAYMELSSLRSEDTAVYYCARGSYYYTSSYFDHWGQGTLVTVSS
VL: DIVLTQSPDSLAVSLGERATINCKASQSVDFDGDSYMNWYQQKPGQPPKLLIYTASNLESGIPDRFSGSGSGTDFTLTISSLQAEDVAVYYCQQSYEDPFTFGQGTKVEIK
notes: humanized from LT-m85
B8: hum_LT-m85-9 (antibody, human IgG4, V domains shown)
VH: B7 VH with A79V
VL: B7 VL with L4M, I62V
notes: humanized from LT-m85
B9: hum_LT-m85-7 (antibody, human IgG4, V domains shown)
VH: B7 VH with A79V
VL: B7 VL
notes: humanized from LT-m85
B10: hum_LT-m85-8 (antibody, human IgG4, V domains shown)
VH: B7 VH
VL: B7 VL with L4M, I62V
notes: humanized from LT-m85
B11: hum_LT-m85-6 (antibody, human IgG4, V domains shown)
VH: B7 VH with I48M
VL: B7 VL
notes: humanized from LT-m85
B12: hum_LT-m37-9 (antibody, human IgG4, V domains shown)
VH: QVQLVQSGAEVKKPGASVKVSCKASGYSFTGYFINWVRQAPGQSLEWIGRIYPYNVNTFYNQNFKGRATLTADKSTSTAYMELSSLRSEDTAVYYCGRGTHYYGSSGAMDYWGQGTLVTVSS
VL: EIVLTQSPATLSVSPGERATLSCKASQNVGTAVAWYQQKPGQSPRLLIYSASNRYTGIPARFSGSGSGTEFTLTISSLQSEDFAVYYCQQYSSYPYTFGGGTKVEIK
notes: humanized from LT-m37
B13: hum_LT-m37-8 (antibody, human IgG4, V domains shown)
VH: B12 VH with S44G, A68V, L70M
VL: B12 VL with L4M, Y87F
notes: humanized from LT-m37
B14: hum_LT-m37-11 (antibody, human IgG4, V domains shown)
VH: B12 VH with S44G, L70M
VL: B12 VL
notes: humanized from LT-m37
B15: hum_LT-m37-7 (antibody, human IgG4, V domains shown)
VH: B12 VH with S44G, L70M
VL: B12 VL with L4M, Y87F
notes: humanized from LT-m37
B16: hum_LT-m37-12 (antibody, human IgG4, V domains shown)
VH: B12 VH with S44G, A68V, L70M
VL: B12 VL
notes: humanized from LT-m37
B17: hum_LT-m37-3 (antibody, human IgG4, V domains shown)
VH: B12 VH with S44G, L70M
VL: B12 VL with Y87F
notes: humanized from LT-m37
B18: hum_LT-m37-10 (antibody, human IgG4, V domains shown)
VH: B12 VH with S44G
VL: B12 VL
notes: humanized from LT-m37

Target: T1, His-human LIGHT
Assay: cell-based or functional assay

In order of rising “IC50, HVEM NF-κB luciferase reporter (293T-HVEM-NF-κB-Luc), free LIGHT” value:
1. B4  0.124 µg/mL
2. B1  0.184 µg/mL
3. B2  0.264 µg/mL
4. B5  0.264 µg/mL
5. B3  0.318 µg/mL

Target: T1, His-human LIGHT
Assay: SPR, Biacore 8K, antibody on CM5 chip

In order of falling Kd:
1. B3  0.0696 nM
2. B5  0.0685 nM
3. B4  0.0674 nM
4. B2  0.0557 nM

In order of rising koff:
1. B3  2.67e-05 s⁻¹
2. B4  5.28e-05 s⁻¹
3. B2  5.61e-05 s⁻¹
4. B5  6.01e-05 s⁻¹

In order of falling kon:
1. B2  1.01e+06 M⁻¹ s⁻¹
2. B5  877000 M⁻¹ s⁻¹
3. B4  783000 M⁻¹ s⁻¹
4. B3  385000 M⁻¹ s⁻¹

Target: T2, His-cynomolgus monkey LIGHT
Assay: SPR, Biacore 8K, antibody on CM5 chip

In order of falling Kd:
1. B6  0.16 nM
2. B5  0.0613 nM
3. B4  0.0601 nM
4. B1  0.0582 nM
5. B2  0.0487 nM
6. B3  0.0347 nM

In order of falling koff:
1. B4  6.72e-05 s⁻¹
2. B5  5.86e-05 s⁻¹
3. B2  4.89e-05 s⁻¹
4. B6  1.26e-05 s⁻¹
5. B3  1.24e-05 s⁻¹
6. B1  4.24e-06 s⁻¹

In order of falling kon:
1. B4  1.12e+06 M⁻¹ s⁻¹
2. B2  1e+06 M⁻¹ s⁻¹
3. B5  956000 M⁻¹ s⁻¹
4. B3  357000 M⁻¹ s⁻¹
5. B6  79100 M⁻¹ s⁻¹
6. B1  72700 M⁻¹ s⁻¹

Target: T1, His-human LIGHT
Assay: ELISA, His-huLIGHT coated

In order of rising EC50:
1. B2  0.0112 µg/mL
2. B4  0.0121 µg/mL
3. B3  0.0243 µg/mL
4. B5  0.0332 µg/mL
5. B6  0.0835 µg/mL
6. B1  0.0871 µg/mL

Target: T3, His-mouse LIGHT
Assay: ELISA, His-musLIGHT coated

B2: no binding.
B3: no binding.
B4: no binding.
B5: no binding.

Target: T1, His-human LIGHT
Assay: ELISA, His-huLIGHT coated
Remark: another data set of the same source

In order of rising EC50:
1. B8  2 pM
2. B11  4.79 pM
3. B9  5.42 pM
4. B7  6.1 pM
5. B10  9.51 pM

Target: T1, His-human LIGHT
Assay: SPR, Biacore 8K, antibody on CM5 chip, human LIGHT

In order of falling Kd:
1. B12  0.383 nM
2. B14  0.062 nM
3. B16  0.0575 nM
4. B15  0.041 nM
5. B13  0.038 nM

In order of falling koff:
1. B12  8.03e-05 s⁻¹
2. B14  7.69e-05 s⁻¹
3. B16  6.75e-05 s⁻¹
4. B15  5.34e-05 s⁻¹
5. B13  4.86e-05 s⁻¹

In order of rising kon:
1. B12  210000 M⁻¹ s⁻¹
2. B16  1.18e+06 M⁻¹ s⁻¹
3. B14  1.24e+06 M⁻¹ s⁻¹
4. B13  1.28e+06 M⁻¹ s⁻¹
5. B15  1.3e+06 M⁻¹ s⁻¹

Target: T1, His-human LIGHT
Assay: cell-based or functional assay
Remark: another data set of the same source

In order of rising “IC50, LTβR NF-κB luciferase reporter, free LIGHT” value:
1. B15  0.135 µg/mL
2. B16  0.144 µg/mL
3. B18  0.153 µg/mL
4. B13  0.17 µg/mL
5. B14  0.203 µg/mL
6. B12  0.227 µg/mL
7. B17  0.399 µg/mL

The binders below were run against LIGHT on the surface of HEK293-LIGHT stable cells (human, UniProt O43557 1-240) (assay: cell-based or functional assay).

In order of falling “IC50, LTβR NF-κB luciferase reporter, HEK293-LIGHT cells” value:
1. B18  4.46 µg/mL
2. B12  3.86 µg/mL
3. B15  3.72 µg/mL
4. B13  3.22 µg/mL
5. B14  2.93 µg/mL
6. B16  2.57 µg/mL
7. B17  1.79 µg/mL

Target: T2, His-cynomolgus monkey LIGHT
Assay: ELISA, His-cynoLIGHT coated

In order of falling EC50:
1. B17  0.0554 nM
2. B16  0.053 nM
3. B14  0.0494 nM
4. B12  0.0478 nM
5. B15  0.0474 nM
6. B18  0.0463 nM
7. B13  0.0449 nM

Each binder was assayed against T4, hFc-human LIGHT (human) (assay: competition ELISA, LTβR-His coated, hFc-huLIGHT added).
T4 construct: also called hFc-huLIGHT

In order of rising IC50:
1. B13  0.0676 nM
2. B15  0.069 nM
3. B16  0.0773 nM
4. B12  0.083 nM
5. B14  0.0864 nM

Target: T1, His-human LIGHT
Assay: ELISA, His-huLIGHT coated
Remark: another data set of the same source

In order of rising EC50:
1. B13  0.0795 µg/mL
2. B15  0.0801 µg/mL
3. B12  0.0825 µg/mL
4. B17  0.0875 µg/mL
5. B16  0.0878 µg/mL
6. B14  0.0907 µg/mL
7. B18  0.0918 µg/mL

Target: T1, His-human LIGHT
Assay: cell-based or functional assay
Remark: another data set of the same source

For B17, the “IC50, HVEM NF-κB luciferase reporter, free LIGHT” value was 0.0747 µg/mL.

Target: T4, hFc-human LIGHT
Assay: competition ELISA, LTβR-His coated, hFc-huLIGHT added
Remark: another data set of the same source

In order of falling IC50:
1. B9  0.223 nM
2. B8  0.204 nM
3. B11  0.195 nM
4. B10  0.189 nM
5. B7  0.174 nM
